Measured values taken from paper PMC7466809.

Test system: GST-EZH2
Assay: Alpha assay (saturation)
Conditions: RNA-protein binding buffer: 50 mM Tris-HCl pH 7.9, 10 mM beta-ME, 10% glycerol, 5 mM MgCl2, 100 mM KCl, 0.1% NP-40; EMSA 1 h at RT, 1 ug His-EZH2, 0.035 pmol …

LINC00301 (Alpha assay) gave a K half of 228 nM.
